{"source": "a protein production outcome set (Wang et al. 2014)"}
{"assay": "label from the status in PepcDB records"}
{"sequence": "MHGAEHLLEIFYLLLAAQVMAFIFKRLNQPVVIGEVLAGVLVGPALLGLVHEGEILEFLAELGAVFLLFMVGLETRLKDILAVGKEAFLVAVLGVALPFLGGYLYGLEIGFETLPALFLGTALVATSVGITARVLQELGVLSRPYSRIILGAAVIDDVLGLIVLAVVNGVAETGQVEVGAITRLIVLSVVFVGLAVFLSTLIARLPLERLPVGSPLGFALALGVGMAALAASIGLAPIVGAFLGGMLLSEVREKYRLEEPIFAIESFLAPIFFAMVGVRLELSALASPVVLVAGTVVTVIAILGKVLGGFLGALTQGVRSALTVGVGMAPRGEVGLIVAALGLKAGAVNEEEYAIVLFMVVFTTLFAPFALKPLIAWTERERAAKE", "protein production": "failed"}
{"sequence": "MHGHGGYDSDFSDDEHCGESSKRKKRTVEDDLLLQKPFQKEKHGKVAHKQVAAELLDREEARNRRFHLIAMDAYQRHRKFVNDYILYYGGKKEDFKRLGENDKTDLDVIRENHRFLWNEEDEMDMTWEKRLAKKYYDKLFKEYCIADLSKYKENKFGFRWRVEKEVISGKGQFFCGNKYCDKKEGLKSWEVNFGYIEHGEKRNALVKLRLCQECSIKLNFHHRRKEIKSKKRKDKTKKDCEESSHKKSRLSSAEEASKKKDKGHSSSKKSEDSLLRNSDEEESASESELWKGPLPETDEKSQEEEFDEYFQDLFL", "protein production": "not failed"}
{"sequence": "MHGTNPVPKLPKKIPMQADPNAAPPALDDETLAFAARLFQYARMGHAEELAELFGQGLPANLRNDKGDSLLMLAAYNGQAATARVILEAGGDPELANDRGQTPLAGAAFKGDADIVRLLLEHGAQVDGAGDGTRTALMVAAMFDRTEIVDLLLAQGADPSRRDASGMSAADMARQMGAQNTPAQLERAQGDRAG", "protein production": "failed"}
{"sequence": "MHHQRKTHVDNNIAAVELAKAYRLLNHGPTVLVSARSQGIDNVMAAAWCCALDFAPPKLTVVLDKMTKTREFIEQSGMFVIQVPTVAQLQLTHRVGSQSLADDANKLLNCGVELFEMAGHDLPFVAGCSAWLACKLIPEPNNQLQYDLFIAEVIGAWADTQVFNHGHWHFDTAPADKRSLHYIAGGQFYAIGESFNAD", "protein production": "not failed"}
{"sequence": "MHIIQRNPSTNLPEGPYSATSAVKDPSHLPMGHHICFSVPNFDSFLHSLKEKGIETFQKSLPDGKVKQVFFFDPDGNGLEVASRS", "protein production": "failed"}
{"sequence": "MHIKYLWMCDCGGKKSQGVKWLPFILILVIAAGLWQLTPPSGLSAPAWHSAIIFVATIASIVAKVLPIGAVGIIGITVFALAYAAGDKTASGAITTALSELNSSLIWLIVVAFMIARGFIKTGLGRRIALQMIRLLGKRTLGLAYGLAFADLILSPAMPSNTARCGGVIYPIADSLARSFDSHPEDESRSKIGTFLITCIGNVNDVTAALFMTGYTGNLLAVKLAANAGVTLSWGSWFIAALLPCLVSFLIVPLLVYWLTRPEIKHTPDAPDLARKELAQMGSMTRGEWLMLATVGVLLVLWIFGSSLGVDATTASFVGLSILLLSGVLTWEDVKSEKGAWDTLIWFAALLMMANQLKKLGFTSWFGNLIGDSIGSTMHGTSWIIILLLLNAAYFYTHYFFASGNAQIAALYAVFLGVGLHLNIPAAPMALMLAFTSSLYCSLTQYTHARGPILFGAGYVPTGVWWRTGFIISLFNQAVFLTVGLAWWKVLGLY", "protein production": "failed"}
{"sequence": "MHISIKTLEGKRIKLEVEDSSNTIDLKIHGEPTRELVVDLSPTPDTGAIMMIFIKTLTGRTNTYEVKGSDTIRELKAKHEEKEGIPVEQQRLIFQGRISIKTVKGKSINLEVADSSDTIDLKINGEPTRQLVLRLGPAVLMRIFVSTIKEKTFILEVKGSDTIKKLKSMIHDQGGPPVDQQDLNHLGTKLKNNATISDYNIKPDANLVIMQNGCIC", "protein production": "failed"}
{"sequence": "MHKIEQLLQTLAPKGVEFRKLGDIILSLKTGLNPRKFFKLNTPNANNYYVTVRELEEYTIKFTHQTDRIDDNALSLCLKRSNLEKDDIFYSLELEQ", "protein production": "failed"}
{"sequence": "MHLRLRTKNGLITITVSQQCTIRELSEEIERKTGIEVAKQKILYGFPQRELRADADKPVESVLQSGDSLTVDKLSAETEQERTVESSPASTENAYVRRKVPDDNSCLFHAICYVFRSGSVAQLRHIISETVRLNPDLYTEAFLGKSNHEYSRWILLPETWGGAIELSILSKYFQTEISVFDIQTLRLDRYGEAENYEERVFLLYDGIHYDPIARAFLGASREYDVTVFKIWDNEALVGAKSVAEEANKNRQYTDLASFTLMCRNCGAKLKGETSAVEHAKQTGHTNFTEA", "protein production": "failed"}
{"sequence": "MHLSLALLVLLFSLILSNVINRIFPRLPLPLIQIIFGVGIGFLLKGEVFELETELFLAFIIAPLLFREGEESDITSILRNWKLILFLIFPVIFVSTLGIGYLAKAVLPASVPLSACLALGAALGPTDFVAYSAISKRFSFPKWISYILQGEGLLNDASGLVAFRVAVTALTTGSFSLLDASWNLVISVIGGFLVGLITALLNRLFLTILDNMDAADVTGALLLELVLPIPSYFVAEEIHVSGIIAVVVAGISLASRFKKITVFDAKLDSVSHTIWGTITFVLNGMVFFLLGTELPTLATPVLSSSTYDTLWMLLAIVLLTAIMFGIRFVMISAVFAQRAWRTKRSLKKIWKVATILTFSGVKGTVSIATILLLPVANMTALEHSLLTFTVAGVTLLSFLIGILILPRLATGPAHTTNHYMQIAILNDVVRELEKDLKQSANQGAVYATIDNYNQRLEDLILEQESNDVKEELANIRIMIMEIESEGLEYAYKKGKISELEYNLYQRYIKGLERRINRGFVSSLSYASAVFVLGLRRILHLAFTFKFRFEQEENRRGPQLTEENRDHMTELYLTNTEQVLEALSNLEGVYHSDLLSYLKRSRIREAEIIQSGAFVERVITHLNPDYVDEMLRGYFLERKIIIEYEQAGRISSRYAKQLRKEVNTLENYSLKETSNTLIYDMINLARRGA", "protein production": "failed"}
{"sequence": "MHMQLKGKTALVTGSTAGIGKAIATSLVAEGANVLINGRREENVNETIKEIRAQYPDAILQPVVADLGTEQGCQDVIEKYPKVDILINNLGIFEPVEYFDIPDEDWFKLFEVNIMSGVRLTRSYLKKMIERKEGRVIFIASEAAIMPSQEMAHYSATKTMQLSLSRSLAELTTGTNVTVNTIMPGSTLTEGVETMLNSLYPNEQLTIEEAEKRFMKENRPTSIIQRLIRPEEIAHLVTFLSSPLSSAINGSALRIDGGLVRSVF", "protein production": "not failed"}
{"sequence": "MHSFPPLLLLLFWGVVSHSFPATLETQEQDVDLVQKYLEKYYNLKNDGRQVEKRRNSGPVVEKLKQMQEFFGLKVTGKPDAETLKVMKQPRCGVPDVAQFVLTEGNPRWEQTHLTYRIENYTPDLPRADVDHAIEKAFQLWSNVTPLTFTKVSEGQADIMISFVRGDHRDNSPFDGPGGNLAHAFQPGPGIGGDAHFDEDERWTNNFREYNLHRVAAHELGHSLGLSHSTDIGALMYPSYTFSGDVQLAQDDIDGIQAIYGRSQNPVQPIGPQTPKACDSKLTFDAITTIRGEVMFFKDRFYMRTNPFYPEVELNFISVFWPQLPNGLEAAYEFADRDEVRFFKGNKYWAVQGQNVLHGYPKDIYSSFGFPRTVKHIDAALSEENTGKTYFFVANKYWRYDEYKRSMDPGYPKMIAHDFPGIGHKVDAVFMKDGFFYFFHGTRQYKFDPKTKRILTLQKANSWFNCRKN", "protein production": "not failed"}
{"sequence": "MHSHPSPKFSVITVTYNAEKVLEDTVQSVISQTYHHVEYIIIDGASKDGTLEIVNRYRNRINQLVSEPDKGLYDAMNKGIALATGDYLCFLNAGDSFHEDDTLQKMVHSINGNELPDILYGETALVDAERHFLRMRRLSAPETLNWKSFKQGMLVCHQAFFPRHTLIEPYDLQYRFSADFDWCIHIMKKARTFHNTHLILIDYLAEGMTTQNHKASLLERFRIMTRHYGLLSTLAHHAWFVVRSFSRNSATPSDAPFLEHHHHHH", "protein production": "failed"}
{"sequence": "MHTDTERCVRAVQSKDARFDGWFFTAVLTTGIYCRPSCPVVPPKPGNMTFYPSAAACQQAGFRACKRCRPDTSPGSPEWNRRADLTARAMRLIADGVVDREGVPGLASRLGYSTRQVERQLLAELGAGPLALARAQRAQTARLLIETTPLPMADIAFAAGFSSIRTFNDTVREVYALSPSELRTRAPRNRRAATAPGALSLRLPFRAPLNPDNLFGHLAATAVPGVEEWRDGAYRRTLRLPYGHGIVALTPNPDHIACRLTLSDLRDLTVAISRCRRLLDLDADPTAIDDQLRADPLLAPLVDKAPGRRVPRTVDEAEFAVRAVLGQQVSTAAARTHAARLVTAHGDPVDDPEGGLTHLFPSTEALAAVDPETLAMPRTRRTTFTTLVAHLADGSVNPGVESDWAETRARLLALPGFGPWTADVIAMRALGDPDAFLPTDLGIRRAAAELGLPSTPAALTARAAAWRPWRAYAVQYLWATDDHPINFLPV", "protein production": "failed"}
